Assay results as given in US20250057950A1 (ORICELL THERAPEUTICS, published 2025).

T1: N-terminal peptide of human GPRC5D (1-27), biotin-labelled (human, labeled with biotin (EZ-Link Sulfo-NHS-LC-Biotin))
T1 construct: Immobilised on an SA sensor at 20 nM; also called N-terminal peptide (Biotin) of GPRC5D
T1 peptide: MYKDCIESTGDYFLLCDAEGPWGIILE

B1: 4A2 VHH (VHH)
VHH: EVQLVESGGGLVQPGGSLRLSCAASGFIFSRYDMGWFRQAPGKGRELVAVITWGGGSTYYPDSVEGRFTISRDNAKRMVYLQMNSLRAEDTAVYYCAARSASAYRTGRLEYNYWGQGTQVTVSS
B2: G5VHH2-hIgG1Fc (Fc fusion)
chain: EVQLVESGGGLVQPGGSLRLSCAASGLIFSRYVMGWFRQAPGKGRELVAFINSSGGSTNYPDSVEGRFTISRDNAKRMVYLQMNSLRAEDTAVYYCAASSRTSTTRGYNYWGQGTQVTVSS
notes: also called G5VHH2 antibody; not shown: human IgG1 Fc fragment (hIgG1Fc) of vector p3.4-hIgG1Fc
B3: 4B3 VHH (VHH)
VHH: B2 chain
notes: also called G5VHH2
B4: G5VHH1-hIgG1Fc (Fc fusion)
chain: EVQLVESGGGLVQPGGSLRLSCAASGRIFSRDAMGWFRQAPGKGRELVAAINSSGGNTYYPDSVEGRFTISRDNAKRMVYLQMNSLRAEDTAVYYCAARGVRWTSTTAYGYNYWGQGTQVTVSS
notes: also called G5VHH1 antibody; not shown: human IgG1 Fc fragment (hIgG1Fc) of vector p3.4-hIgG1Fc
B5: 3E7 VHH (VHH)
VHH: B4 chain
notes: also called G5VHH1
B6: 3B5 VHH (VHH)
VHH: EVQLVESGGGLVQPGGSLRLSCAASGFIFSRYGMGWFRQAPGKGRELVAAINWSDGTTYYPDSVEGRFTISRDNAKRMVYLQMNSLRAEDTAVYYCAADRRLRSQTGYDYWGQGTQVTVSS
notes: From the synthetic nanobody library NanoOri_1.0 (Caplacizumab backbone)
B7: ET150-5 scFv (scFv, from another filing)
scFv: QSVLTQPPSASGTPGQRVTISCSGSRSNVGGNYVFWYQQVPGATPKLLIYRSNQRPSGVPDRFAGSKSGSSASLAISGLRSEDEADYYCATWDDSLSGFVFGTGTKVTVLGSRGGGGSGGGGSGGGGSLEMAEVQLVESGGGLVKPGGSLRLSCAASGFTFSDYYMSWIRQAPGKGLEWVSYISSSGSTIYYADSVKGRFTISRDNAKNSLYLQMNSLRAEDTAVYYCARGYGKAYDQWGQGTLVTVSS

Tests used:
[1] = molecular target: T2, human G protein-coupled receptor class C group 5 member D (GPRC5D) protein (human, UniProt Q9NZD1 1-345); assay: flow cytometry (FACS) on CHO-GPRC5D cells
T2 construct: whole, on cells; The same protein on several cell lines; also called HuGPRC5D; CHO-GPRC5D

[2] = molecular target: T2, human G protein-coupled receptor class …; assay: flow cytometry (FACS) on MM1S myeloma cells
Procedure: The target cells (i.e., MM1S myeloma cells) were formulated with buffer to a concentration of 1×10⁶ cells/mL, and added into a 96-well sharp-bottom plate (corning 3894) with 30 μL in each well. The antibody to be detected was formulated with buffer to a concentration of 10 μg/mL, and subject to 3-fold dilution to form a gradient of 8 concentrations. The formulated antibodies of different concentrations were mixed well with the plated target cells at 30 μL/well, and incubated in a refrigerator at 4° C. for 1 hr. 150 μL of buffer was added into each well, and centrifuged at 300 g for 5 min. The supernatant was discarded, and then the cells were loosened up by shaking, and additionally washed once. The fluorescent secondary antibody (ab98593) was formulated with buffer at a ratio of 1:200, added into each well in an amount of 30 μl and mixed with the cells uniformly, and incubated in the refrigerator at 4° C. for 30 min. 150 μL of buffer was added to each well, and centrifuged at 300 g for 5 min. The supernatant was discarded, and then the cells were loosened up by shaking, and additionally washed once. 35 μL of buffer was added into each well, mixed well, and the mixture was measured by a flow cytometer. Of those, ET150-5scFv is a positive control antibody with the sequence found in the patent application CN107428829A, 3B5VHH has an amino acid sequence as set forth in SEQ ID NO: 15, 3E7VHH has an amino acid sequence as set forth in SEQ ID NO: 19, 4A2VHH has an amino acid sequence as set forth in SEQ ID NO: 24, and 4B3VHH has an amino acid sequence as set forth in SEQ ID NO: 30.

[3] = molecular target: T2, human G protein-coupled receptor class …; assay: flow cytometry (FACS) on K562-GPRC5D cells
[4] = molecular target: T1, N-terminal peptide of human GPRC5D …; assay: BLI (Octet RED384), biotinylated peptide on SA sensor, antibody in solution
Excerpt: (§1) The G5VHH1 and G5VHH2 antibody sequences were cloned into an eukaryotic vector containing p3.4-hIgG1Fc of a human IgG1 Fc fragment (hIgG1Fc) sequence, facilitating the recombinant expression of GPRC5D VHH-hIgG1Fc to give a recombinant protein which was then purified to determine the affinity of G5VHH1-hIgG1Fc and G5VHH2-hIgG1Fc to the affinity N-terminal peptide (Biotin) of GPRC5D. Briefly, the N-terminal peptide of human GPRC5D (>sp|Q9NZD1|1-27: […]) protein was labeled with biotin (EZ-Link Sulfo-NHS-LC-Biotin, Pierce, 21327). By the biolayer interferometry (BLI) technique, the binding kinetics between antigen and antibody was analyzed using the molecular interaction analyzer fortebiooctetRED384 (PALL) (wherein both antigen and antibody were diluted with a PBS buffer containing 0.1% BSA and 0.02% Tween 20). The biotin-conjugated antigen with a concentration of 20 nM was immobilized to an SA sensor, and bound for 3 min; then bound with double-diluted antibody solution (G5VHH1 and G5VHH2 antibodies) for 5 min; and finally dissociated for 5 min. The obtained results were analyzed by Octet Data Analysis 9.0 software (fortebio) to calculate the binding strength between the antigen and the antibody, thereby giving the KD value, Ka (1/Ms) value and Kd (1/s) value. […]

[5] = molecular target: T2, human G protein-coupled receptor class …; assay: flow cytometry on GPRC5D-CHO cells, anti-human IgG Fc secondary antibody
Procedure: CHO-GPRC5D target cells were formulated with PBS buffer to a concentration of 1×10⁶ cells/mL, and added into a 96-well sharp-bottom plate (corning 3894) with 30 μL in each well. The antibodies to be detected, G5VHH1-hIgG1Fc and G5VHH2-hIgG1Fc were formulated with PBS buffer to a concentration of 30 μg/mL, and subject to 3-fold dilution to form a gradient of 8 concentrations (with the minimum concentration of 0). The formulated antibodies with different concentrations were mixed well with the plated target cells at 30 μL/well, and incubated in a refrigerator at 4° C. for 1 hr. 150 μL of buffer was added into each well, and centrifuged at 300 g for 5 min. The supernatant was then discarded, and the cells were additionally washed once. Goat-anti-human IgG (Fc-specific, ab98593) fluorescent secondary antibody was formulated with buffer at a ratio of 1:200, added into each well in an amount of 30 μl and mixed with the cells uniformly, and incubated in the refrigerator at 4° C. for 30 min. 170 μL of buffer was added to each well, and centrifuged at 300 g for 5 min. The supernatant was then discarded and the cells were additionally washed once. 35 μL of buffer was added into each well, mixed well, and the mixture was detected by iQue Screener Flow Cytometer (available from IntelliCyt Company). […]

[6] = molecular target: T1, N-terminal peptide of human GPRC5D …; assay: BLI (Octet RED384), biotinylated peptide on SA sensor; fit R2 0.7914, model called not credible
Excerpt: as §1

[7] = molecular target: human G protein-coupled receptor class C group 5 member D (GPRC5D) protein (human) (UniProt Q9NZD1); assay: flow cytometry (FACS) on CHO-GPRC5D cells
[8] = molecular target: human G protein-coupled receptor class C group 5 member D (GPRC5D) protein (human) (UniProt Q9NZD1); assay: flow cytometry (FACS) on K562-GPRC5D cells
[9] = molecular target: human G protein-coupled receptor class C group 5 member D (GPRC5D) protein (human) (UniProt Q9NZD1); assay: flow cytometry (FACS) on MM1S myeloma cells

T2 sequence (Q9NZD1 whole entry): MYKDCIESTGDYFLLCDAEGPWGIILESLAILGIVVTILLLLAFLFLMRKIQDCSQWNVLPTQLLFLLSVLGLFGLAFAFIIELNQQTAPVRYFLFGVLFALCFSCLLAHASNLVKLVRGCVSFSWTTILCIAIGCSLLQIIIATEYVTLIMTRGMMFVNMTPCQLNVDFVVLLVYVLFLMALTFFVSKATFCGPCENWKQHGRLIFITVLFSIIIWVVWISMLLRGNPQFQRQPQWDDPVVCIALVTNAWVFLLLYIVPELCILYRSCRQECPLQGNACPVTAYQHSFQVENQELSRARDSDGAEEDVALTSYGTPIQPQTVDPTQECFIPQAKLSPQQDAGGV

| Binder | EC50 [1] | EC50 [2] | EC50 [3] | also measured |
| --- | --- | --- | --- | --- |
| B1 | 0.0687 µg/mL | 0.0195 µg/mL | 0.164 µg/mL | – |
| B2 | – | – | – | Kd [4]: 76.9 nM; EC50 (read off the curve) [5]: ~0.4 µg/mL |
| B3 | 0.18 µg/mL | 0.658 µg/mL | 0.216 µg/mL | – |
| B4 | – | – | – | binding result [6]: no binding; EC50 (read off the curve) [5]: ~1 µg/mL |
| B5 | 0.426 µg/mL | 0.286 µg/mL | 0.576 µg/mL | – |
| B6 | 0.103 µg/mL | 0.0439 µg/mL | 0.207 µg/mL | – |
| B7 | – | – | – | EC50 [7]: 0.249 µg/mL; EC50 [8]: 0.431 µg/mL; EC50 [9]: 0.911 µg/mL |
